Data published in the supplement of paper PMC10567573.

B1: KRT34 (parent)
chain: YQSYFKTIEELQQKILCAKAENAR

Variants of: B1
Test: protein stability index of a GFP-peptide fusion (GPS, HEK-293T) (PSI 1-6); higher = more stable
Conditions: c terminus: a fixed tail appended
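Note: lentivirally expressed fusions sorted by FACS into six bins by GFP to DsRed ratio, PSI derived from sequencing read proportions per bin multiplied by bin number.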

Variant | protein stability index
YQSYFKTIEELQQKILCAKANNAR | 1.69
YQSYFKTIEELQQKILCAKAINAR | 1.29
YQSYFKTIEELQQKILCAKACNAR | 2.38
YQSYFKTIEELQQKILCAKAHNAR | 2.24
YQSYFKTIEELQQKILCAKAFNAR | 1.17
YQSYFKTIEELQQKILCAKAMNAR | 1.26
YQSYFKTIEELQQKILCAKADNAR | 1.74
YQSYFKTIEELQQKILCAKAVNAR | 2.42
YQSYFKTIEELQQKILCAKAPNAR | 2.14
YQSYFKTIEELQQKILCAKAKNAR | 1.99
YQSYFKTIEELQQKILCAKAANAR | 2.93
YQSYFKTIEELQQKILCAKARNAR | 2.12
YQSYFKTIEELQQKILCAKAYNAR | 1.27
YQSYFKTIEELQQKILCAKALNAR | 2.17
YQSYFKTIEELQQKILCAKATNAR | 2.05
YQSYFKTIEELQQKILCAKAGNAR | 1.03
YQSYFKTIEELQQKILCAKASNAR | 1.96
YQSYFKTIEELQQKILCAKAQNAR | 1.89
YQSYFKTIEELQQKILCPKAENAR | 2.21
YQSYFKTIEELQQKILCWKAENAR | 2.73
YQSYFKTIEELQQKILCIKAENAR | 2.04
YQSYFKTIEELQQKILCEKAENAR | 1.45
YQSYFKTIEELQQKILCYKAENAR | 2.16
YQSYFKTIEELQQKILCVKAENAR | 1.88

Variant | protein stability index
YQSYFKTIEELQQKILCQKAENAR | 1.83
YQSYFKTIEELQQKILCTKAENAR | 2.1
YQSYFKTIEELQQKILCGKAENAR | 1.78
YQSYFKTIEELQQKILCDKAENAR | 2.16
YQSYFKTIEELQQKILCFKAENAR | 2.75
YQSYFKTIEELQQKILCNKAENAR | 2.07
YQSYFKTIEELQQKILCLKAENAR | 2.04
YQSYFKTIEELQQKILCKKAENAR | 1.99
YQSYFKTIEELQQKILCRKAENAR | 1.68
YQSYFKTIEELQQKILCCKAENAR | 2.5
YQSYFKTIEELQQKILCHKAENAR | 1.53
YQSYFKTIEELQQKILCAKAENAN | 2.25
YQSYFKTIEELQQKILCAKAENAF | 1.91
YQSYFKTIEELQQKILCAKAENAL | 1.77
YQSYFKTIEELQQKILCAKAENAG | 1.16
YQSYFKTIEELQQKILCAKAENAH | 2.2
YQSYFKTIEELQQKILCAKAENAM | 1.02
YQSYFKTIEELQQKILCAKAENAC | 1.59
YQSYFKTIEELQQKILCAKAENAD | 1.16
YQSYFKTIEELQQKILCAKAENAI | 2.17
YQSYFKTIEELQQKILCAKAENAY | 2.6
YQSYFKTIEELQQKILCAKAENAS | 1.74
YQSYFKTIEELQQKILCAKAENAK | 1.93
YQSYFKTIEELQQKILCAKAENAE | 1.32

Variant | protein stability index
YQSYFKTIEELQQKILCAKAENAA | 1.52
YQSYFKTIEELQQKILCAKAENAW | 2.32
YQSYFKTIEELQQKILCAKAENAV | 2.78
YQSYFKTIEELQQKILCAKAENAT | 1.64
YQSYFKTIEELQQKILCAKAENAP | 1.57
YQSYFKTIEELQQKILCAKAENAQ | 3.56
YQSYFKTIEELQQKILCATAENAR | 1.39
YQSYFKTIEELQQKILCAGAENAR | 1.92
YQSYFKTIEELQQKILCAEAENAR | 1.99
YQSYFKTIEELQQKILCANAENAR | 1.83
YQSYFKTIEELQQKILCAIAENAR | 2.39
YQSYFKTIEELQQKILCADAENAR | 2.48
YQSYFKTIEELQQKILCAYAENAR | 1.35
YQSYFKTIEELQQKILCAHAENAR | 1.64
YQSYFKTIEELQQKILCAPAENAR | 2.15
YQSYFKTIEELQQKILCAQAENAR | 2.62
YQSYFKTIEELQQKILCAMAENAR | 2.51
YQSYFKTIEELQQKILCARAENAR | 1.91
YQSYFKTIEELQQKILCALAENAR | 2.93
YQSYFKTIEELQQKILCAWAENAR | 2.29
YQSYFKTIEELQQKILCACAENAR | 1.78
YQSYFKTIEELQQKILCAAAENAR | 1.87
YQSYFKTIEELQQKILCASAENAR | 1.9
YQSYFKTIEELQQKILCAFAENAR | 1.74

Variant | protein stability index
YQSYFKTIEELQQKILCAKDENAR | 2.18
YQSYFKTIEELQQKILCAKKENAR | 2.16
YQSYFKTIEELQQKILCAKWENAR | 1.46
YQSYFKTIEELQQKILCAKQENAR | 1.78
YQSYFKTIEELQQKILCAKNENAR | 1.71
YQSYFKTIEELQQKILCAKFENAR | 1.4
YQSYFKTIEELQQKILCAKYENAR | 1.3
YQSYFKTIEELQQKILCAKEENAR | 2.14
YQSYFKTIEELQQKILCAKCENAR | 2.01
YQSYFKTIEELQQKILCAKIENAR | 1.86
YQSYFKTIEELQQKILCAKVENAR | 1.71
YQSYFKTIEELQQKILCAKHENAR | 2.06
YQSYFKTIEELQQKILCAKRENAR | 1.88
YQSYFKTIEELQQKILCAKMENAR | 2.57
YQSYFKTIEELQQKILCAKLENAR | 2.34
YQSYFKTIEELQQKILCAKPENAR | 1.79
YQSYFKTIEELQQKILCAKTENAR | 1.87
YQSYFKTIEELQQKILCAKAENPR | 2.38
YQSYFKTIEELQQKILCAKAENQR | 2.17
YQSYFKTIEELQQKILCAKAENSR | 2.05
YQSYFKTIEELQQKILCAKAENNR | 1.55
YQSYFKTIEELQQKILCAKAENRR | 2.06
